First the molecules themselves.
B1: CO (random + O1) (dsDNA)
DNA 1: ACTGTGAGCCTAATATTTACTGCTATAACAGTAAAGGCTATCTGATTTTA
DNA 2: TAAAATCAGATAGCCTTTACTGTTATAGCAGTAAATATTAGGCTCACAGT
B2: OI (O1 downstream repeat inverted) (dsDNA)
DNA 1: TATCATTTTTACTGCTATAAAATGACTATATAATTAATTTTTGGTGTTCC
DNA 2: GGAACACCAAAAATTAATTATATAGTCATTTTATAGCAGTAAAAATGATA
B3: OS (O1 scrambled) (dsDNA)
DNA 1: TATCATTTAACAAACTCGATTTGTTATATATAATTAATTTTTGGTGTTCC
DNA 2: GGAACACCAAAAATTAATTATATATAACAAATCGAGTTTGTTAAATGATA

In the series the target is HipB(Lp) (Legionella pneumophila Lp01JK, UniProt Q5ZSZ8 1-75). Description: EMSA; HipB 2.5 nM, DNA 10 nM. The following applies: protein: recombinant; tags: His6-SBP tag cleaved; chain copies: 2; blunt. Background: In EMSA bound probe runs differently from free probe, usually more slowly.
Turning to B1, the binding result is listed as “binds”.

Take B2: the binding result was “binds”.

B3: the binding result was “no binding”.

Source of the values: paper PMC10653801.
